Experimental data taken from PMC4140852 (PLoS Pathogens, 2014).

B1: rAPRc_(105–231), activation product derived from rAPRc_(99–231) by auto-processing (enzyme)
chain: YKWSTEVGEIIIARNRDGHFYINAFVNNVKIKFMVDTGASDIALTKEDAQKLGFDLTKLKYTRTYLTANGENKAAPITLNSVVIGKEFKNIKGHVGLGDLDISLLGMSLLERFKGFRIDKDLLILNY
B2: rAPRc_(99–231), intermediate of activation of RC1339/APRc (Aspartic Protease from Rickettsia conorii) soluble catalytic domain, C-terminal His-tag (domain or fragment)
chain: SALIPSYKWSTEVGEIIIARNRDGHFYINAFVNNVKIKFMVDTGASDIALTKEDAQKLGFDLTKLKYTRTYLTANGENKAAPITLNSVVIGKEFKNIKGHVGLGDLDISLLGMSLLERFKGFRIDKDLLILNY
notes: also called rAPRc99–231-His; APRc_(99–231)His; not shown: His6, C-terminal, kept

Molecular target: the molecule itself
Assay: cross-linking

| Protein | stoichiometry N |
| --- | --- |
| B1 | 2 |
| B2 | 2 |
